Data reported in paper PMC7360973.

Tested on: Hsf1 wt (trimer) (human)
Assay: fluorescence polarization
Details: printed as <= 5 nM; 25 C; Hsf1 SEC buffer: 25 mM HEPES/NaOH pH 7.5, 150 mM NaCl, 10% glycerol, 2 mM DTT; FP at 25 C (5 nM DNA titration; 25 nM DNA and 100 nM trimer for dissociation) …

Substance: 3xHSE DNA (Alexa Fluor 488)
- Kd: < 5 nM
